Reference: US20210221894A1 (DRAGONFLY THERAPEUTICS, published 2021)
Changes are numbered by the printed parent chain.

Legend:
[1] = biological target: T1, recombinant human NKG2D-Fc fusion protein (human, UniProt P26718 73-216); test: ELISA, plate-bound recombinant human NKG2D-Fc, anti-human kappa-HRP/TMB
T1 construct: extracellular domain; also called NKG2D-Fc-biotin; not shown: human IgG1 Fc domain
T1 sequence (looked up): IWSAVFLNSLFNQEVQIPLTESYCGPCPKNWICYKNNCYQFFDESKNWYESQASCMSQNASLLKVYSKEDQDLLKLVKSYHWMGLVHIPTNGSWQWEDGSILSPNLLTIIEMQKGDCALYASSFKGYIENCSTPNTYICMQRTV
Source text: (§1) The nucleic acid sequences of human, mouse or cynomolgus NKG2D ectodomains were fused with nucleic acid sequences encoding human IgG1 Fc domains and introduced into mammalian cells to be expressed. After purification, NKG2D-Fc fusion proteins were adsorbed to wells of microplates. After blocking the wells with bovine serum albumin to prevent non-specific binding, NKG2D-binding domains were titrated and added to the wells pre-adsorbed with NKG2D-Fc fusion proteins. Primary antibody binding was detected using a secondary antibody which was conjugated to horseradish peroxidase and specifically recognizes a human kappa light chain to avoid Fc cross-reactivity. 3,3′,5,5′-Tetramethylbenzidine (TMB), a substrate for horseradish peroxidase, was added to the wells to visualize the binding signal, whose absorbance was measured at 450 nm and corrected at […]. An NKG2D-binding domain clone, an isotype control or a positive control (comprising heavy chain and light chain variable domains selected from SEQ ID NOs:101-104, or anti-mouse NKG2D clones MI-6 and CX-5, eBioscience, San Diego, Calif.) was added to each well.

[2] = biological target: T2, recombinant cynomolgus NKG2D-Fc fusion protein (cynomolgus; human, UniProt P61252 73-216); test: ELISA, plate-bound recombinant cynomolgus NKG2D-Fc, anti-human kappa-HRP/TMB
T2 construct: extracellular domain; not shown: human IgG1 Fc domain
T2 sequence (looked up): T1 sequence (looked up) with D43N, T133I
Source text: as §1

[3] = biological target: T3, recombinant mouse NKG2D-Fc fusion protein (mouse; human, UniProt O54709 90-232); test: ELISA, plate-bound recombinant mouse NKG2D-Fc, anti-human kappa-HRP/TMB
T3 construct: extracellular domain; also called Mouse NKG2D-Fc-biotin; not shown: human IgG1 Fc domain
T3 sequence (looked up): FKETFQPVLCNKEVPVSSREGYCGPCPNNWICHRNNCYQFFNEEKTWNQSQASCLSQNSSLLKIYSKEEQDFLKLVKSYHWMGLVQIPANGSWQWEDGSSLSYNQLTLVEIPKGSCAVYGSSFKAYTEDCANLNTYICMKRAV
Source text: as §1

[4] = biological target: T3, recombinant mouse NKG2D-Fc fusion …; test: competition ELISA: plate-bound mouse Rae-1 delta-Fc, mouse NKG2D-Fc-biotin in solution; blocked ligand Rae-1 delta
Method: Recombinant mouse Rae-1 delta-Fc (R&D Systems, Minneapolis, Minn.) was adsorbed to wells of a microplate, and the wells were blocked with bovine serum albumin to reduce non-specific binding. Mouse NKG2D-Fc-biotin was added to the wells followed by NKG2D-binding domains. After incubation and washing, NKG2D-Fc-biotin that remained bound to Rae-1delta-Fc coated wells was detected using streptavidin-HRP and TMB substrate. Absorbance was measured at 450 nm and corrected at […]. After subtracting background, specific binding of NKG2D-binding domains to the NKG2D-Fc proteins was calculated from the percentage of NKG2D-Fc-biotin that was blocked from binding to the Rae-1delta-Fc coated wells.

[5] = biological target: T1, recombinant human NKG2D-Fc fusion …; test: competition ELISA: plate-bound human NKG2D-Fc, saturating ULBP-6-His-biotin as blocked ligand, streptavidin-HRP
Method: Recombinant human NKG2D-Fc proteins were adsorbed to wells of a microplate, and the wells were blocked with bovine serum albumin to reduce non-specific binding. A saturating concentration of ULBP-6-His-biotin was added to the wells, followed by addition of the NKG2D-binding domain clones. After a 2-hour incubation, wells were washed and ULBP-6-His-biotin that remained bound to the NKG2D-Fc coated wells was detected by streptavidin-conjugated to horseradish peroxidase and TMB substrate. Absorbance was measured at 450 nm and corrected at […]. After subtracting background, specific binding of NKG2D-binding domains to the NKG2D-Fc proteins was calculated from the percentage of ULBP-6-His-biotin that was blocked from binding to the NKG2D-Fc proteins in wells.

recombinant human DLL4 = recombinant human DLL4 (human, UniProt Q9NR61 27-524, limits assumed); test: ELISA, plate-bound recombinant human DLL4 (0.5 µg/mL), anti-mouse IgG-HRP/TMB, % of positive control max
recombinant human DLL4, sequence (Q9NR61 27-524 limits assumed): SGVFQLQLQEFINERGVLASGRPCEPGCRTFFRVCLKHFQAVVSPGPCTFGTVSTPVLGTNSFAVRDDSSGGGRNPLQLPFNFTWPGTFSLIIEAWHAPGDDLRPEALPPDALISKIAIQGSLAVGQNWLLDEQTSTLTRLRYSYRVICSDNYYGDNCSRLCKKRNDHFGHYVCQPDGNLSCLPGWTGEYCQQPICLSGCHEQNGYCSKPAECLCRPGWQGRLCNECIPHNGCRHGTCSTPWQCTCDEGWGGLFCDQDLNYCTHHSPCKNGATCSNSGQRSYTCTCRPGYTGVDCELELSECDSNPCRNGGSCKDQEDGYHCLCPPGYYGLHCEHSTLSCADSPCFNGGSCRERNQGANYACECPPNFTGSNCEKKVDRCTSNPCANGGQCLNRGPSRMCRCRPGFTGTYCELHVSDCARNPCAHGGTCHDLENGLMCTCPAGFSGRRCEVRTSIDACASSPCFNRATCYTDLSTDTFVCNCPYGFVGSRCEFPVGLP
Method: (§2) To investigate the binding of anti-DLL3 antibodies to human DLL3, wells of high binding flat-bottom plates were coated with recombinant human DLL3 diluted to 0.5 μg/ml. To assess cross-reactivity of the antibodies to DLL1/DLL4, which are closely related family members to DLL3, plates were coated with recombinant human DLL1 diluted to 1 μg/ml, or human DLL4 diluted to 0.5 μg/ml. […] Binding was detected using anti-mouse IgG-HRP and 3,3′,5,5′-Tetramethylbenzidine (TMB) substrate. Signals were normalized to the corresponding positive control antibody.

[6] = biological target: T4, extracellular domain (ECD) of human DLL3 (AdipoGen Life Sciences) (human, UniProt Q9NYJ7 27-492); test: SPR (Biacore 8K), 37 C, antibody captured on anti-mouse Fc, DLL3 ECD injected, 1:1 fit; approximate
T4 construct: Bought and further purified by size exclusion chromatography; also called hDLL3 ECD; DLL3 ECD
T4 sequence: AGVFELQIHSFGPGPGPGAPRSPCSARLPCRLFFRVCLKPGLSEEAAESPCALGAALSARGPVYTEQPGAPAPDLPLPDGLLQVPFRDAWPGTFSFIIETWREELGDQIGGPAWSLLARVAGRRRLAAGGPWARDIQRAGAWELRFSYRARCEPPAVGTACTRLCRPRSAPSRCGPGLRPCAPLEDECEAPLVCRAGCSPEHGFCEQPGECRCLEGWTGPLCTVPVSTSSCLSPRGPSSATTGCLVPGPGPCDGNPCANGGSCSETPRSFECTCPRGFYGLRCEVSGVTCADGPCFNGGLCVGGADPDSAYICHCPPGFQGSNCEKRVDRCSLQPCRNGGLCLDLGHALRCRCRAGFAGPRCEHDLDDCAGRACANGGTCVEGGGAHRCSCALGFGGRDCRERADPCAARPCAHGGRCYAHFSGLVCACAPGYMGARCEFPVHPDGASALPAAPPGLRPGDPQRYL
Source text: (§3) The binding kinetics of different anti-DLL3 antibodies to recombinant proteins of different domains of human DLL3 were studied by surface plasmon resonance (SPR) using a Biacore™ 8K instrument. These anti-DLL3 antibodies were produced from mouse hybridomas, and each included a heavy chain variable region and light chain variable region described herein. Briefly, antibodies recognizing human IgG Fc and antibodies recognizing mouse IgG Fc were immobilized on different channels of a Biacore™ 8K chip to allow simultaneous analysis of human and murine anti-DLL3 antibodies. Murine anti-DLL3 antibodies were captured on the anti-mouse Fc channel of the Biacore chip. The human anti-DLL3 antibody from Stemcentrx (San Francisco, Calif.) was used as a control and was captured onto anti-human Fc channel of the Biacore™ chip. Different concentrations of DLL3 ECD, DLL3 N-terminal domain, EGF2-6, EGF3-6, EGF4-6, or EGF5-6 domains of DLL3 were injected. Experiments were performed at 37° C. Biacore™ 8K evaluation software was used for all data analysis. To obtain kinetic rate constants double-referenced data were fit to a 1:1 interaction model using Biacore™ 8K Evaluation software (GE Healthcare, Marlborough, Mass.). The equilibrium binding constant KD was determined by the ratio of binding rate constants kd/kₐ.
(§4) Table 36 lists the calculated binding kinetics (KD). […]

[7] = biological target: T4, extracellular domain (ECD) of human …; test: SPR (Biacore 8K), 37 C, antibody captured on anti-mouse Fc, DLL3 ECD injected, 1:1 fit; off rate beyond instrument sensitivity
Source text: as §3, §4

recombinant human DLL1 = biological target: T5, recombinant human DLL1 (human, UniProt O00548 18-540, limits assumed); test: ELISA, plate-bound recombinant human DLL1 (1 µg/mL), anti-mouse IgG-HRP/TMB, % of positive control max
T5 sequence (looked up): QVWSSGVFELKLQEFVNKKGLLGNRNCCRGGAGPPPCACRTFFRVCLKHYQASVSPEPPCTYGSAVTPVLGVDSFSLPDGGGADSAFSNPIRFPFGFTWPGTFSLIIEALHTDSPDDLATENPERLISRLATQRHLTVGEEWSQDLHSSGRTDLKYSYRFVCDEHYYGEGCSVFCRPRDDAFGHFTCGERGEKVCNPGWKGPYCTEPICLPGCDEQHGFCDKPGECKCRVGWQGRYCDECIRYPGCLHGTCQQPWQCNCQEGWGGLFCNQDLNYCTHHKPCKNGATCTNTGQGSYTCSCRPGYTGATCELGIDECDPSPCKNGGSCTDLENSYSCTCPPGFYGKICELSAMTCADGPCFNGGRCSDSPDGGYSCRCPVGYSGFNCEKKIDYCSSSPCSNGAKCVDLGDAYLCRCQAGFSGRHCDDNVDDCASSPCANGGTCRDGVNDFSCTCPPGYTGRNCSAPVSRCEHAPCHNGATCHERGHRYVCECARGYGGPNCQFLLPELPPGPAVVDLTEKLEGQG
Method: as §2

[8] = biological target: T6, recombinant human DLL3 (ELISA coat) (human, UniProt Q9NYJ7 27-492); test: ELISA, plate coated with recombinant human DLL3 0.5 µg/ml, anti-mouse IgG-HRP
T6 sequence: T4 sequence
Method: as §2
Table 38 lists the calculated EC₅₀ based on the binding data from FIG. 24.

[9] = biological target: T4, extracellular domain (ECD) of human …; test: SPR (Biacore 8K), 37 C, antibody captured on anti-mouse Fc, DLL3 ECD injected, 1:1 fit
Source text: as §3
Table 36 lists the calculated binding kinetics (KD). […] Stemcentrx anti-DLL3 antibody was used as a control.

B1: ADI-27743 (antibody, V domains shown)
VH: QVQLQQWGAGLLKPSETLSLTCAVYGGSFSGYYWSWIRQPPGKGLEWIGEIDHSGSTNYNPSLKSRVTISVDTSKNQFSLKLSSVTAADTAVYYCARARGPWSFDPWGQGTLVTVSS
VL: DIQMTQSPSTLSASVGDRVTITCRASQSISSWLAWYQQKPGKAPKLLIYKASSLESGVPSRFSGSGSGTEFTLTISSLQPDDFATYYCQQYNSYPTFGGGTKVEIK
[1]
  EC50 (read off the curve): ~0.3 nM
[2]
  EC50 (read off the curve): ~0.3 nM
[3]
  EC50 (read off the curve): ~0.2 nM
[4]
  IC50 (read off the curve): ~20 nM
[5]
  IC50 (read off the curve): ~2 nM

B2: anti-DLL3 antibody clone 2F7 (antibody, V domains shown)
VH: QVQLQQSGAELMKPGASVKLSCKATGYTFTGYWIDWIKQRPGHGLEWVGEILPGSDNINYNEKFRGKATFTADTSSNTAYIQLSSLTTEDSAIYFCARCGTGPWFTYWGQGTLVTVSA
VL: NIMMTQSPSSLAVSAGEKVTMSCKSSQSVLYSSNQKNYLAWYQQKPGQSPRLLIYWASTRASGVPDRFTGSGSGTDFTLTITNIQPEDLAVYYCHQFLSSTWTFGGGTKLEIK
notes: Murine antibody produced from a mouse hybridoma
Recombinant human DLL4
  binding result: no binding
[6]
  Kd: < 0.011 nM
[7]
  koff: ~1.15e-06 s⁻¹
Recombinant human DLL1
  binding result: no binding
[8]
  EC50: 0.3 nM
[9]
  kon: 72100 M⁻¹ s⁻¹

B3: anti-DLL3 antibody clone 2H6 (antibody, V domains shown)
VH: QIQLVQSGPELKKPGETVKISCKASGYTFTTYGVNWVKQAPGKGLKWMGWINTYSGVPTYADDFKGRFAFSLETIATTAYLQINNLKNEDTATYFCARFGNYGFDYWGQGTTLTVSS
VL: DIVMTQSPSSLSVSAGEKVTMSCKSSQSLVNSGNQKNYLAWYQQKPGQPPKLLISGASTRESGVPDRFTGSGSGTDFTLTISSVQAEDLAVYYCQNDHNYPYTFGGGTKLEIK
notes: Murine antibody from a mouse hybridoma
Recombinant human DLL4
  binding result: no binding
Recombinant human DLL1
  binding result: no binding
[8]
  EC50: 0.06 nM
